In patent publication US20080286277A1 (GLYCART BIOTECHNOLOGY, published 2008):
Substitutions are numbered along the chain they refer to.

B1: humanized ICR62 antibody I-HHD-9/I-KC (antibody, human IgG1, V domains shown)
VH: QVQLVQSGAEVKKPGSSVKVSCKASGFTFTDYKIHWVRQAPGQGLEWMGYFNPNSGYATYAQKFQGRVTITADKSTSTAYMELSSLRSEDTAVYYCARLSPGGYYVMDAWGQGTTVTVSS
VL: DIQMTQSPSSLSASVGDRVTITCRASQGINNYLNWYQQKPGKAPKRLIYNTNNLQTGVPSRFSGSGSGTEFTLTISSLQPEDFATYYCLQHNSFPTFGQGTKLEIKR
B2: humanized ICR62 antibody I-HHD-11/I-KC (antibody, human IgG1, V domains shown)
VH: B1 VH with A58S, A109V
VL: B1 VL
B3: humanized ICR62 antibody I-HHD-2/I-KC (antibody, human IgG1, V domains shown)
VH: B1 VH with T28S, A58S
VL: B1 VL
B4: humanized ICR62 antibody I-HHD-4/I-KC (antibody, human IgG1, V domains shown)
VH: B1 VH with D31E, A58S
VL: B1 VL
B5: humanized ICR62 antibody I-HHD-1/I-KC (antibody, human IgG1, V domains shown)
VH: B1 VH with F27G, A58S
VL: B1 VL
B6: humanized ICR62 antibody I-HHD-7/I-KC (antibody, human IgG1, V domains shown)
VH: B1 VH with N54I, A58S
VL: B1 VL
B7: humanized ICR62 antibody I-HHD-6/I-KC (antibody, human IgG1, V domains shown)
VH: B1 VH with P53A, A58S
VL: B1 VL
B8: chimeric rat-human ICR62 antibody (antibody, human IgG1, V domains shown)
VH: QVNLLQSGAALVKPGASVKLSCKGSGFTFTDYKIHWVKQSHGKSLEWIGYFNPNSGYSTYNEKFKSKATLTADKSTDTAYMELTSLTSEDSATYYCTRLSPGGYYVMDAWGQGASVTVSS
VL: DIQMTQSPSFLSASVGDRVTINCKASQNINNYLNWYQQKLGEAPKRLIYNTNNLQTGIPSRFSGSGSGTDYTLTISSLQPEDFATYFCLQHNSFPTFGAGTKLELKR
notes: also called ch-ICR62; chimeric ICR62
B9: humanized ICR62 antibody I-HLA2/I-KC (antibody, human IgG1, V domains shown)
VH: QVQLVQSGAEVKKPGASVKVSCKASGFTFTDYYMHWVRQAPGQGLEWMGWINPNSGYSTYNEKFQGQVTISADKSISTAYLQWSSLKASDTAMYYCARLSPGGYYVMDAWGQGTTVTVSS
VL: B1 VL
B10: humanized ICR62 antibody I-HLA6/I-KC (antibody, human IgG1, V domains shown)
VH: B9 VH with V2M, A9P, A16T
VL: B1 VL
B11: humanized ICR62 antibody I-HHB/I-KC (not glycoengineered) (antibody, V domains shown)
VH: B1 VH with A24G, A58S
VL: B1 VL
notes: also called I-HHB/KC
B12: humanized ICR62 antibody I-HLA4/I-KC (antibody, human IgG1, V domains shown)
VH: B9 VH with F27Y
VL: B1 VL
B13: humanized ICR62 antibody I-HLA3/I-KC (antibody, human IgG1, V domains shown)
VH: B9 VH with F27Y, N61S, E62P, K63S
VL: B1 VL
B14: humanized ICR62 antibody I-HLA5/I-KC (antibody, human IgG1, V domains shown)
VH: B9 VH with V2M, A9P, A16T, N61S, E62P, K63S
VL: B1 VL
B15: humanized ICR62 antibody I-HLA9/I-KC (antibody, human IgG1, V domains shown)
VH: B1 VH with Q1E, S16E, V18L, V20I, A24G, F27Y, T28S, A58S
VL: B1 VL
B16: humanized ICR62 antibody I-HLA7/I-KC (antibody, human IgG1, V domains shown)
VH: B9 VH with V2M, A9P, A16T, Y33K, M34I, P41R, G44R, M48I
VL: B1 VL
B17: humanized ICR62 antibody I-HHD-8/I-KC (antibody, human IgG1, V domains shown)
VH: B1 VH with Y57T, A58S
VL: B1 VL
B18: humanized ICR62 antibody I-HHC/I-KB (antibody, human IgG1, V domains shown)
VH: B1 VH with A24G, A58S, A61N, Q62E, Q65K, G66S
VL: B1 VL with R24K, G28N, F71Y
notes: I-HHC was also paired with I-KA and the chimeric light chain
B19: humanized ICR62 antibody I-HLA8/I-KC (antibody, human IgG1, V domains shown)
VH: B1 VH with V2M, A9P, S16T, A58S
VL: B1 VL
B20: humanized ICR62 antibody I-HLA/I-KA (antibody, human IgG1, V domains shown)
VH: QVQLVQSGAEVKKPGASVKVSCKASGFTFTDYYMHWVRQAPGQGLEWMGWINPNSGYSTYAQKFQGRVTMTADTSISTAYMELSRLRSDDTAVYYCARLSPGGYYVMDAWGQGTTVTVSS
VL: B1 VL with F71Y
B21: humanized ICR62 antibody I-HLA1/I-KC (antibody, human IgG1, V domains shown)
VH: B9 VH with N61S, E62P, K63S
VL: B1 VL
B22: humanized ICR62 antibody I-HHG/I-KC (antibody, human IgG1, V domains shown)
VH: B1 VH with A24G
VL: B1 VL
B23: humanized ICR62 antibody I-HHD-10/I-KC (antibody, human IgG1, V domains shown)
VH: B1 VH with A58S, V106G
VL: B1 VL
B24: humanized ICR62 antibody I-HLA/I-KB (antibody, human IgG1, V domains shown)
VH: B20 VH
VL: B1 VL with R24K, G28N, F71Y
B25: humanized ICR62 antibody I-HHF/I-KC (antibody, human IgG1, V domains shown)
VH: B1 VH with A24G, A58S, T59N
VL: B1 VL
B26: humanized ICR62 antibody I-HHD/I-KC3 (antibody, human IgG1, V domains shown)
VH: B1 VH with A58S
VL: B1 VL with N34G
B27: humanized ICR62 antibody I-HHD/I-KC2 (antibody, human IgG1, V domains shown)
VH: B1 VH with A58S
VL: B1 VL with Y32W
B28: humanized ICR62 antibody I-HHD/I-KC9 (antibody, human IgG1, V domains shown)
VH: B1 VH with A58S
VL: B1 VL with F94Y
B29: humanized ICR62 antibody I-HHD/I-KC4 (antibody, human IgG1, V domains shown)
VH: B1 VH with A58S
VL: B1 VL with N50T
B30: humanized ICR62 antibody I-HHD/I-KC6 (antibody, human IgG1, V domains shown)
VH: B1 VH with A58S
VL: B1 VL with N52S
B31: humanized ICR62 antibody I-HHD/I-KC1 (antibody, human IgG1, V domains shown)
VH: B1 VH with A58S
VL: B1 VL with N30R
B32: humanized ICR62 antibody I-HHD/I-KC5 (antibody, human IgG1, V domains shown)
VH: B1 VH with A58S
VL: B1 VL with T51A
B33: humanized ICR62 antibody I-HHD/I-KC8 (antibody, human IgG1, V domains shown)
VH: B1 VH with A58S
VL: B1 VL with T56S
B34: humanized ICR62 antibody I-HHD/I-KC7 (antibody, human IgG1, V domains shown)
VH: B1 VH with A58S
VL: B1 VL with N53S

These binders were tested against T1, human epidermal growth factor receptor (EGFR) (human, UniProt P00533 25-1210) (assay: flow cytometry on A431 cells, heavy chain paired with I-KC).
T1 construct: whole, on cells; also called HER-1; ErbB1

Binder | binding result
B1 | binds
B2 | binds
B3 | binds
B4 | binds
B5 | binds
B6 | binds
B7 | binds

Each binder was assayed against T1, human epidermal growth factor receptor … (assay: flow cytometry on A431 cells).
Experimental: The purified, monomeric humanized antibody variants were tested for binding to human epidermal growth factor receptor (EGFR, also referred to in the literature as HER-1 or ErbB1) on the A431 human epidermal cell line, using a flow cytometry-based assay. 200,000 cells (e.g., from human A431 cell line) in 180 μl FACS buffer (PBS containing 2% FCS and 5 mM EDTA) were transferred to 5 ml polystyrene tubes and 20 μl 10 fold concentrated anti-EGFR antibody (primary antibody) samples (1-5000 ng/ml final concentration) or PBS only were added. After gently mixing the samples, the tubes were incubated at 4° C. for 30 min in the dark. Subsequently, samples were washed twice with FACS buffer and pelleted at 300×g for 3 min. Supernatant was aspirated off and cells were taken up in 50 μl FACS buffer and 2 μl secondary antibody (anti-Fc-specific F(ab′)2-FITC fragments (Jackson Immuno Research Laboratories, USA)) was added and the tubes were incubated at 4° C. for 30 min. Samples were washed twice with FACS buffer and taken up in 500 μl of FACS buffer for analysis by Flow Cytometry. Binding was determined by plotting the geometric mean fluorescence against the antibody concentrations.

Binder | EC50 | EC50 fold lower relative to I-HLA4 | EC50 fold increase relative to ch-ICR62, I-HLA1 and I-HLA2 | binding result | EC50 fold increase relative to I-HHD parent construct | EC50 fold decrease relative to ch-ICR62 | EC50 fold increase relative to I-KC (paired with I-HHD)
B8 | ~0.3 µg/mL | 2 fold |  |  |  |  | 
B9 | ~0.3 µg/mL |  |  |  |  |  | 
B10 |  |  | 2 fold |  |  |  | 
B11 |  |  |  | binds |  |  | 
B12 |  |  | 2 fold |  |  |  | 
B13 |  |  | 2 fold |  |  |  | 
B14 |  |  | 2 fold |  |  |  | 
B15 |  |  |  | binds |  |  | 
B16 |  |  |  | binds |  |  | 
B17 |  |  |  |  | 10 fold |  | 
B18 |  |  |  | binds |  |  | 
B19 |  |  |  |  |  | 2 fold | 
B20 |  |  |  | binds |  |  | 
B21 | ~0.3 µg/mL |  |  |  |  |  | 
B22 |  |  |  | binds |  |  | 
B23 |  |  |  |  | 10 fold |  | 
B24 |  |  |  | binds |  |  | 
B25 |  |  |  | binds |  |  | 
B26 |  |  |  |  |  |  | 10 fold

Each binder was assayed against T1, human epidermal growth factor receptor … (assay: flow cytometry on A431 cells, light chain paired with I-HHD).

Binder | binding result
B27 | binds
B28 | binds
B29 | binds
B30 | binds
B31 | binds
B32 | binds
B33 | binds
B34 | binds
